Measurements reported in publication doi:10.1101/2020.06.02.131169 (bioRxiv, 2020).

B1: GlgE of Estrella lausannensis (maltosyl-1-phosphate transferase) (enzyme, UniProt A0A0H5DRC6 1-675, looked up)
chain: MSVSAAEKRQLLTQVKASGSMYTNTLHSIVIQNISPKPEPFGPAKRVLLEQVEVEADIFTDPHTKLEADLIVKAPGLRKTTRIPFHPLVNDRFKAVFVPDTPGTYSFFVEAWVNPAALWQEDLRKKQEARLDLTVDLQIGAALLVEVADLLPPEESVKLLQIAKKLREQKGAEAVAFDPEIARLGRLARPKSRQGVCSQEQEVFVTRKKALFSTWYELFPRSCSGTMRHGTFNDVVAKLPRISRMGFDVLYLPPIHPIGKTKRKGKNNALTALPDDPGSPWAVGSHEGGHDAIQRELGTLADFERLVKEAESLGIEIALDIALQCSPDHPYLKEHPEWFLKRPDGTYQYAENPPKKYEDIIPFHFTEDNKDTLFREILRIFLFWMKRGVRIFRVDNPHTKPFALWEYVIGEVRKVDSGVIFLAEAFTRPKIMHHLARIGFDQSYTYFTWRNTKWELTEYLTELTKTEARNYLRPNFFVNTPDILPESLQWGGRAAFLTRLILAATLSSSYGIYGPAFEQMLSEAVPGKEDYIDSEKYEIKPWDFEKKGTISETIEIVNRIRKENPALQATGNLEFYATDNDYLLAYGKQGPQGESLLIVVNLDHYHTQSGYVTLPLMHLGIQEKEPYLVDDLLSGERYIWEGERNYIQLSPHLVPAHIFRIRPKMLRENNFDYFI

Columns and labels:
[1] = biological target: bifunctional TreS-Mak of Estrella lausannensis (trehalose synthase-maltokinase) (Estrella lausannensis); test: SEC
SEC = biological target: the molecule itself; test: SEC

Row | Molecule | stoichiometry N [1] | stoichiometry N (SEC)
1 | bifunctional TreS-Mak of Estrella lausannensis (trehalose synthase-maltokinase) (enzyme) | 2 | 
2 | B1 |  | 2
